Data reported in patent US20190136216.

Target: VAMP2, native protein in rat brain detergent extracts (BDE) (UniProt P63045)
UniProt P63045, sequence (P63045 whole entry, looked up): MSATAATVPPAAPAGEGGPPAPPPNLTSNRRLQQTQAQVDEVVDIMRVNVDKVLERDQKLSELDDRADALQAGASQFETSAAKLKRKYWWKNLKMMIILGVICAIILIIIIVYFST

LC of BoNT/B (B-LC), residues 1-439, His6-tagged
cleavage of SNARE proteins in rat brain detergent extracts (immunoblot): abolishes the immunoblot signal of VAMP2
